Measurements reported in patent US20240374671A1 (ACCELERON PHARMA, published 2024).

T1: monomeric hActRIIB (human, UniProt Q13705 25-130, limits assumed)
T1 construct: also called ActRIIB MONOMER; ActRIIB monomer
T1 sequence: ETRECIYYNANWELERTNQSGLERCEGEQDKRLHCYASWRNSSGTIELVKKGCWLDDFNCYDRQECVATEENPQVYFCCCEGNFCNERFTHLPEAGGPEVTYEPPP

T2: dimeric hActRIIB (human, UniProt Q13705 25-130)
T2 construct: also called ActRIIB DIMER; ActRIIB dimer
T2 sequence: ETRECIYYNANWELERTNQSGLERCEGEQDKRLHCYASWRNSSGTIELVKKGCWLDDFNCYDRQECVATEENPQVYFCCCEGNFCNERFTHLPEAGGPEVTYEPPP

T3: human ActRIIB ECD (peptide library) (human, UniProt Q13705 25-130)
T3 construct: also called AcRIIB
T3 sequence: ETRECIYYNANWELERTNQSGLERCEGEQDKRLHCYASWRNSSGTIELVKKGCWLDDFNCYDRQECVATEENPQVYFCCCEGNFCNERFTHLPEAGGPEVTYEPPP


Tests used:
monomeric hActRIIA [1] = target: T4, monomeric hActRIIA (human, UniProt P27037 21-138, limits assumed); experiment: SPR (Biacore), 37 C, mAb captured on anti-hFc chip, receptor injected
T4 construct: also called ActRIIA MONOMER; ActRIIA monomer
T4 sequence (P27037 21-138 limits assumed): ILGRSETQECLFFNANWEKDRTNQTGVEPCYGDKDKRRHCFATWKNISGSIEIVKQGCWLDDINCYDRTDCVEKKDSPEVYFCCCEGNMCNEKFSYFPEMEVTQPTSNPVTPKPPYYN
Procedure: (§1) Kinetic characterization of A01 antibody lineage (A01 (naïve parent), B01, C01, D01, E01 and F01) binding to monomeric and dimeric hActRIIB and hActRIIA was performed using standard BIACORE®-based analysis at 37° C. In brief, antibodies were captured on anti-hFcIgG Biacore chips and different concentrations of dimeric and monomeric ActRIIB or ActRIIA were injected in duplicates over the captured antibody and control surface. To obtain kinetic rate constants the data were double referenced and fit to a 1:1 interaction model using BiaEvaluation software (GE Healthcare). The equilibrium binding constant KD was determined by the ratio of binding rate constants kd/kₐ

dimeric hActRIIA [2] = target: T5, dimeric hActRIIA (human, UniProt P27037 21-138); experiment: as above
T5 construct: also called ActRIIA DIMER; ActRIIA dimer
T5 sequence (P27037 21-138): as the sequence (P27037 21-138 limits assumed) above
Procedure: as §1

monomeric hActRIIB [3] = target: T1, monomeric hActRIIB; experiment: SPR (Biacore), 37 C, mAb captured on anti-hFc chip, receptor injected, 1:1 fit
Procedure: as §1

dimeric hActRIIB [4] = target: T2, dimeric hActRIIB; experiment: as above
Procedure: as §1

monomeric hActRIIA [5] = target: T4, monomeric hActRIIA; experiment: SPR (Biacore), 37 C
Procedure: (§2) Kinetic characterization of G02 antibody binding to monomeric and dimeric hActRIIB and hActRIIA was performed using standard BIACORE®-based analysis at 37° C. FIGS. 8A-8D show kinetic characterization of G02 antibody binding to monomeric and dimeric hActRIIB and hActRIIA (FIG. 8A-8D, respectively) as determined by BIACORE®-based analysis at 37° C.

dimeric hActRIIA [6] = target: T5, dimeric hActRIIA; experiment: SPR (Biacore), 37 C
Procedure: as §2

monomeric hActRIIB [7] = target: T1, monomeric hActRIIB; experiment: SPR (BIACORE), 37 C, series of concentrations (not printed on the sheet)
Procedure: as §2

dimeric hActRIIB [8] = target: T2, dimeric hActRIIB; experiment: as above
Procedure: as §2

monomeric hActRIIA [9] = target: T4, monomeric hActRIIA; experiment: as above
Procedure: (§3) FIGS. 1A-1N depict kinetic characterization of A01 lineage antibodies binding to hActRIIB and hActRIIA as determined by BIACORE®-based analysis at 37° C. Monomeric or dimeric hActRIIB or hActRIIA was […]. FIGS. 1A-1D depict characterization of antibody A01 (parent) binding to ActRIIB monomer (FIG. 1A), ActRIIB dimer (FIG. 1B), ActRIIA monomer (FIG. 1C), and ActRIIA dimer (FIG. 1D). FIGS. 1E and 1F depict characterization of antibody B01 binding to ActRIIB monomer (FIG. 1E) and ActRIIB dimer (FIG. 1F). FIGS. 1G-1H depict antibody C01 binding to ActRIIB monomer (FIG. 1G) and ActRIIB dimer (FIG. 1H). FIGS. 1I-1J depict antibody D01 binding to ActRIIB monomer (FIG. 1I) and ActRIIB dimer (FIG. 1J). FIGS. 1K-1L depict antibody E01 binding to ActRIIB monomer (FIG. 1K) and ActRIIB dimer (FIG. 1L). FIGS. 1M-1N depict antibody F01 binding to ActRIIB monomer (FIG. 1M) and ActRIIB dimer (FIG. 1N).
(§4) Kinetic characterization of A01 antibody lineage (A01 (naïve parent), B01, C01, D01, E01 and F01) binding to monomeric and dimeric hActRIIB and hActRIIA was performed using standard BIACORE®-based analysis at 37° C. […] The equilibrium binding constant KD was determined by the ratio of binding rate constants kd/kₐ

dimeric hActRIIA [10] = target: T5, dimeric hActRIIA; experiment: as above
Procedure: as §3, §4

monomeric hActRIIB [11] = target: T1, monomeric hActRIIB; experiment: SPR (Biacore), 37 C
dimeric hActRIIB [12] = target: T2, dimeric hActRIIB; experiment: SPR (Biacore), 37 C
monomeric hActRIIA [13] = target: T4, monomeric hActRIIA; experiment: SPR (BIACORE), 37 C, series of concentrations (not printed on the sheet); remark: listed apart in the source
dimeric hActRIIA [14] = target: T5, dimeric hActRIIA; experiment: as above; remark: listed apart in the source
[15] = target: T3, human ActRIIB ECD (peptide library); experiment: Pepscan peptide library ELISA (linear 15-mers and CLIPS)
Procedure: Mapping of the ActRIIB and ActRIIA ECD epitopes recognized by the antibodies was performed by Pepscan Presto BV using custom made peptide libraries. Sequences of ECDs of human ActRIIB and ActRIIA were converted into libraries of overlapping linear 15-mers and circularized 15-mer CLIPS using combinatorial matrix design. CLIPS (Chemical Linkage of Peptides onto Scaffolds) technology structurally fixes peptides into defined three-dimensional structures (single, double, triple, etc. loops) creating functional mimics of complex binding sites. Peptides were synthesized on solid support. Binding of antibodies to each of the synthesized peptides was tested by ELISA and binding affinities were quantified. Peptide constructs representing both parts of the discontinuous epitope in the correct conformation bind specific antibody with the highest affinity. […] Each peptide was given a score based on affinity.

| Binder | binding result (monomeric hActRIIA [1]) | binding result (dimeric hActRIIA [2]) | Kd (monomeric hActRIIB [3]) [nM] | koff (monomeric hActRIIB [3]) [s⁻¹] | kon (monomeric hActRIIB [3]) [M⁻¹ s⁻¹] | Kd (dimeric hActRIIB [4]) [nM] | koff (dimeric hActRIIB [4]) [s⁻¹] | kon (dimeric hActRIIB [4]) [M⁻¹ s⁻¹] | also measured |
| --- | --- | --- | --- | --- | --- | --- | --- | --- | --- |
| D01 (antibody, human IgG1, kappa, V domains shown, Human IgG) VH: QVQLQESGPGLVKPSQTLSLTCTVSGGSIESGGYYWSWIRQHPGKGLEWIGGIYGSGSTYYNPSLKSRVTISVDTSKNQFSLKLSSVTAADTAVYYCARDSGIGYSYASSHGYYYYMDVWGKGTTVTVSS VL: EIVLTQSPATLSVSPGERATLSCRASQSVGSNLAWYQQKPGQAPRLLIYGASTRATGIPARFSGSGSGTEFTLTISSLQSEDFAVYYCQQYFHFPLTFGGGTKVEIKR | no binding | no binding | 2.19 | 0.00354 | 1.61e+06 | 0.302 | 0.00025 | 828000 | – |
| G02 (antibody, human IgG1, kappa, V domains shown, Human IgG) VH: QVQLQESGPGLVKPSQTLSLTCTVSGGSISSGSYYWSWIRQHPGKGLEWIGYIYYSGSTYYNPSLKSRVTISVDTSKNQFSLKLSSVTAADTAVYYCARGLGMYYHVPFDIWGQGTMVTVSS VL: EIVLTQSPATLSLSPGERATLSCRASQSVSSYLAWYQQKPGQAPRLLIYDASNRATGIPARFSGSGSGTDFTLTISSLEPEDFAVYYCQQYFHWPPTFGGGTKVEIKR | – | – | – | – | – | – | – | – | Kd (monomeric hActRIIA [5]): 58 nM; koff (monomeric hActRIIA [5]): 0.0661 s⁻¹; kon (monomeric hActRIIA [5]): 1.14e+06 M⁻¹ s⁻¹; Kd (dimeric hActRIIA [6]): 1.48 nM; koff (dimeric hActRIIA [6]): 0.000275 s⁻¹; kon (dimeric hActRIIA [6]): 186000 M⁻¹ s⁻¹; binding result (monomeric hActRIIB [7]): no binding; binding result (dimeric hActRIIB [8]): no binding |
| B01 (antibody, V domains shown, Human IgG) VH: QVQLQESGPGLVKPSQTLSLTCTVSGGSILSGGYYWSWIRQHPGKGLEWIGGIYYSGKTYYNPSLKSRVTISVDTSKNQFSLKLSSVTAADTAVYYCARDSGIGYSYASSHGYYYYMDVWGKGTTVTVSS VL: EIVLTQSPATLSVSPGERATLSCRASQSVGSNLAWYQQKPGQAPRLLIYGASTRATGIPARFSGSGSGTEFTLTISSLQSEDFAVYYCQQYFHFPLTFGGGTKVEIK | no binding | no binding | 3.64 | 0.0034 | 1.09e+06 | 0.393 | 0.000246 | 626000 | – |
| A01 (antibody, human IgG1, kappa, V domains shown, Human IgG from yeast libraries; also called A01 Parent; A01 (naïve parent)) VH: QLQLQESGPGLVKPSETLSLTCTVSGGSISSSSYAWGWIRQPPGKGLEWIGSIYYSGSTYYNPSLKSRVTISVDTSKNQFSLKLSSVTAADTAVYYCARDSGIGYSYASSHGYYYYMDVWGKGTTVTVSS VL: EIVLTQSPATLSVSPGERATLSCRASQSVGSNLAWYQQKPGQAPRLLIYGASTRATGIPARFSGSGSGTEFTLTISSLQSEDFAVYYCQQYFHFPLTFGGGTKVEIKR | – | – | 1150 | 0.198 | 172000 | 1.21 | 0.000128 | 106000 | binding result (monomeric hActRIIA [9]): no binding; binding result (dimeric hActRIIA [10]): no binding |
| F01 (antibody, human IgG1, kappa, V domains shown, Human IgG) VH: QVQLQESGPGLVKPSQTLSLTCTVSGGSIKSGGYYWSWIRQHPGKGLEWIGGIYPSGSTYYNPSLKSRVTISVDTSKNQFSLKLSSVTAADTAVYYCARDSGIGYSYASSHGYYYYMDVWGKGTTVTVSS VL: EIVLTQSPATLSVSPGERATLSCRASQSVGSNLAWYQQKPGQAPRLLIYGASTRATGIPARFSGSGSGTEFTLTISSLQSEDFAVYYCQQYFHFPLTFGGGTKVEIKR | no binding | no binding | 3.32 | 0.00444 | 1.34e+06 | 0.36 | 0.000216 | 601000 | – |
| E01 (antibody, human IgG1, kappa, V domains shown, Human IgG) VH: QVQLQESGPGLVKPSQTLSLTCTVSGGSIGSGGYYWSWIRQHPGKGLEWIGGIYGSGSTYYNPSLKSRVTISVDTSKNQFSLKLSSVTAADTAVYYCARDSGIGYSYASSHGYYYYMDVWGKGTTVTVSS VL: EIVLTQSPATLSVSPGERATLSCRASQSVGSNLAWYQQKPGQAPRLLIYGASTRATGIPARFSGSGSGTEFTLTISSLQSEDFAVYYCQQYFHFPLTFGGGTKVEIKR | no binding | no binding | 2.45 | 0.00415 | 1.7e+06 | 0.376 | 0.000292 | 777000 | – |
| C01 (antibody, human IgG1, kappa, V domains shown, Human IgG) VH: QVQLQESGPGLVKPSQTLSLTCTVSGGSISSGGYFWSWIRQHPGKGLEWIGGIYYSGRTYYNPSLKSRVTISVDTSKNQFSLKLSSVTAADTAVYYCARDSGIGYSYASSHGYYYYMDVWGKGTTVTVSS VL: EIVLTQSPATLSVSPGERATLSCRASQSVGSNLAWYQQKPGQAPRLLIYGASTRATGIPARFSGSGSGTEFTLTISSLQSEDFAVYYCQQYFHFPLTFGGGTKVEIKR | no binding | no binding | 5.22 | 0.00712 | 1.37e+06 | 0.236 | 0.000188 | 797000 | – |
| G01 (antibody, human IgG1, kappa, V domains shown, Human IgG; also called G01 Parent; G01 (naïve parent)) VH: QLQLQESGPGLVKPSETLSLTCTVSGGSISSSSYAWGWIRQPPGKGLEWIGSIYYSGSTYYNPSLKSRVTISVDTSKNQFSLKLSSVTAADTAVYYCARAGKYRWHGMDVWGQGTTVTVSS VL: DIQMTQSPSSVSASVGDRVTITCRASQGISSWLAWYQQKPGKAPKLLIYAASNLQSGVPSRFSGSGSGTDFTLTISSLQPEDFATYYCQQAPDLPITFGGGTKVEIKR | – | – | – | – | – | – | – | – | Kd (monomeric hActRIIB [11]): 16.8 nM; koff (monomeric hActRIIB [11]): 0.0152 s⁻¹; kon (monomeric hActRIIB [11]): 905000 M⁻¹ s⁻¹; Kd (dimeric hActRIIB [12]): 1.14 nM; koff (dimeric hActRIIB [12]): 0.00022 s⁻¹; kon (dimeric hActRIIB [12]): 176000 M⁻¹ s⁻¹; binding result (monomeric hActRIIA [13]): no binding; binding result (dimeric hActRIIA [14]): no binding |
| I01 (antibody, human IgG4 S228P, kappa, V domains shown) VH: EVQLLESGGGLVQPGGSLRLSCAASGFTFGSYGMTWVRQAPGKGLEWVSVISGSGGGTYYADSVKGRFTISRDNSKNTLYLQMNSLRAEDTAVYYCAKGPRIVGMDVWGQGTTVTVSS VL: DIQMTQSPSSVSASVGDRVTITCRASQGISSWLAWYQQKPGKAPKLLIYAASSLQSGVPSRFSGSGSGTDFTLTISSLQPEDFATYYCQQVFSYPLTFGGGTKVEIKR | – | – | – | – | – | – | – | – | binding result [15]: binds |
